We go through 10 molecules from patent publication US20110172153A1 (GENERAL HOSPITAL, published 2011).

Square brackets hold non-standard residues; d marks the D form. Ends that are not written are not given here. hArg = N=C(N)NCCCC[C@H](N)C(=O)O; Nle = CCCC[C@H](N)C(=O)O; Aib = CC(C)(N)C(=O)O

Experiment [1] deals with T1, human parathyroid hormone receptor (PTHR) (human, UniProt Q03431 27-593).
T1 construct: Assayed in membranes of HKRK-B7 cells or of transiently transfected COS-7 cells, or on intact HKRK-B7/HKRK-B64/COS-7 cells; RG = co-transfected with negative-dominant Galpha-s; R0 = receptor alone plus GTPgammaS; also called hPTHR; human PTH receptor
T1 sequence: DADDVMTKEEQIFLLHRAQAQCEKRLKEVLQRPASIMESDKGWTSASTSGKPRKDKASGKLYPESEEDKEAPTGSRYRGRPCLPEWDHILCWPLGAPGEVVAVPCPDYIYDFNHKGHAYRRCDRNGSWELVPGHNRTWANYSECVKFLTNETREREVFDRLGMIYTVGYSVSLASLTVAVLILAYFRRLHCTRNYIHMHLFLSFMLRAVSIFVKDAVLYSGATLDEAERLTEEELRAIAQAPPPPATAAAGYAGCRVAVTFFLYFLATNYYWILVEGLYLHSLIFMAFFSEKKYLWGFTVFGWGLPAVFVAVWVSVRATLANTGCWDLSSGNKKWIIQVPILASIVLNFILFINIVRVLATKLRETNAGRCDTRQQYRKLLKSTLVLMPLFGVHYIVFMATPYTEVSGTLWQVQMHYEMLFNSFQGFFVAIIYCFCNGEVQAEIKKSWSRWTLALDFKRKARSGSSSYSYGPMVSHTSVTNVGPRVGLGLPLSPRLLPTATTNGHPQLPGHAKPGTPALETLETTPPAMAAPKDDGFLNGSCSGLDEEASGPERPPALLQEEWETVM
The experiment is described as follows: ratio of R0 IC50 to RG IC50, human PTH1 receptor.

The target in experiment [2] is T1, human parathyroid hormone receptor …. Briefly: competition radioligand binding, human PTH1 receptor R0. The procedure: (§1) Binding Studies. Binding studies were performed using cell membranes as described (Dean et al., Mol Endocrinol 20(4):931-43 (2006)). […] Reactions contained a total membrane protein concentration of 20 to 100 μg/mL, and a total radioactivity concentration of approximately 150,000 cpm/ml. Unlabeled peptide ligands and/or GTPγS (Sigma-Aldrich Inc. St. Louis, Mo.) were added to the reactions as indicated. At the end of the reaction, bound and free radioligand were separated by vacuum filtration using a 96-well vacuum filter plate and vacuum filter apparatus (Multi-Screen system with Durapore HV, […] filters; Millipore Corp., Milford, Mass.); the air-dried filters were then detached from the plate and counted for gamma radioactivity using a gamma counter.
(§2) To assess the capacities of various unlabeled peptide ligands to bind to the G protein-uncoupled and G protein-coupled PTHR conformations (R⁰ and RG, respectively), membranes were prepared from transiently transfected COS-7 cells and the following assay conditions.

Experiment [3] has the same target. Briefly: competition radioligand binding, human PTH1 receptor RG. How it is done: as §1, §2
Experiment [4] has the same target. Briefly: competition vs 125I-[Aib1,3,M]PTH(1-15), COS-7 membranes hPTHR + GsND (RG). How it is done: (§3) Radioligand dissociation. These studies were performed as bulk reactions in 15 mL round-bottom polystyrene snap-cap tubes (Falcon) (total reaction volume=5.0 ml). Membranes and radioligand were pre-incubated for 90 minutes to allow complex formation; the dissociation phase was then initiated by the addition of an excess of the unlabeled analog of the radioligand (5×10⁻⁷ M final concentration), with or without GTPγS (5×10⁻⁵ M). Immediately prior to this addition (t=0), and at successive time-points thereafter, 0.2 ml aliquots (30,000 cpm) were withdrawn and immediately processed by vacuum filtration, as described above. Non-specific binding was determined in parallel reaction tubes containing the unlabeled analog of the radioligand (5×10⁻⁷ M) in both the pre-incubation and dissociation phases. The specifically bound radioactivity at each time point was calculated as a percent of the radioactivity specifically bound at t=0. Equilibrium competition binding and GTPγS inhibition. […] Membranes, tracer radioligand, and various concentrations of unlabeled ligands and/or GTPγS were incubated in the wells for 90 minutes, following which, the reaction plates were processed by rapid vacuum filtration to separate bound from free radioligand, as described above. […] For both radioligands, the non-specific binding was determined in reactions containing a saturating concentration of the unlabeled analog of the radioligand. The specifically bound radioactivity was calculated as a percent of the radioactivity specifically bound in the absence of a competing ligand or GTPγS.

Experiment [5] deals with T2, rat parathyroid hormone receptor (PTHR) (rat, UniProt P25961 27-591).
T2 sequence: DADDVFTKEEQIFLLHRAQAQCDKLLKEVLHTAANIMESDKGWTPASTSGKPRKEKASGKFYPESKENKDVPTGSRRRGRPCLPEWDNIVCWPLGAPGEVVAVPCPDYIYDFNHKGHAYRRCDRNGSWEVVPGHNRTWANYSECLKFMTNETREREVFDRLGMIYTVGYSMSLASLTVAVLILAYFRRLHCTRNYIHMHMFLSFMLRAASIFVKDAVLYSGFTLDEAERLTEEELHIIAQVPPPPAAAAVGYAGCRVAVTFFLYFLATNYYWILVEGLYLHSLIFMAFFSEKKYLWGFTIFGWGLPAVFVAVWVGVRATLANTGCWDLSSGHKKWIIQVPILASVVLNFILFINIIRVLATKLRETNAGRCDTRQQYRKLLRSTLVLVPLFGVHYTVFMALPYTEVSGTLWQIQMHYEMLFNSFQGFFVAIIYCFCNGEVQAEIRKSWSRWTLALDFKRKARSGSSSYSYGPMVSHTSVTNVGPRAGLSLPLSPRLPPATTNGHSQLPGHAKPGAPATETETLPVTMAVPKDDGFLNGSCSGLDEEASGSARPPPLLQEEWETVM
Briefly: cell-based or functional assay.

Experiment [6] addresses T1, human parathyroid hormone receptor …. The experiment is described as follows: ratio of R0 IC50 to RG IC50, hPTHR.
Experiment [7] has the same target. The experiment is described as follows: competition vs 125I-PTH(1-34) + GTPgammaS, COS-7 membranes hPTHR (R0). How it is done: as §3
Experiment [8] shares this target. Briefly: cell-based or functional assay.
For experiment [9] the target is unchanged. The experiment is described as follows: cell-based or functional assay. This is another data set of the same source.
The target is the same in experiment [10]. The experiment is described as follows: screen, binding to human PIR R0 relative to parent PTHrP(1-28)NH; footnote not given.
For experiment [11] the target is unchanged. The experiment is described as follows: competition radioligand binding, hPTHR R0 conformation. How it is done:
as §1, §2

Experiment [12] has the same target. Briefly: competition radioligand binding, human PIR R0. The procedure:
as §1, §2

Experiment [13] has the same target. The experiment is described as follows: competition radioligand binding, hPTHR RG conformation. The procedure:
as §1, §2

Experiment [14] has the same target. The experiment is described as follows: ratio of R0 IC50 to RG IC50, hPTHR. The source holds these as a separate data set.
For experiment [15] the target is unchanged. The experiment is described as follows: screen, binding to human PIR RG relative to parent PTHrP(1-28)NH; footnote not given.
For experiment [16] the target is unchanged. The experiment is described as follows: competition radioligand binding, human PIR RG. The procedure: as §1, §2

B1: A20,Mc-PTH(1-34)OH (peptide)
peptide: AVAEIQLMHQRAKWLNSMRAVEWLRKKLQDVHNF-OH
notes: Mc = A1,3,12,Q10,R11,W14,R19
Regarding B1, the R0/RG ratio in [1] came to 80. In addition, the half-inhibitory concentration (IC50) came out at 31.9 nM in experiment [2] and 0.4 nM in [3].

B2: F23,Mc-PTH(1-34)OH (peptide)
peptide: AVAEIQLMHQRAKWLNSMRRVEFLRKKLQDVHNF-OH
notes: Mc = A1,3,12,Q10,R11,W14,R19
Turning to B2, the R0/RG ratio in [1] was determined as 5. In addition, the IC50 was 1.2 nM in [2] and 0.23 nM in experiment [3].

B3: rPTH(1-34)NH2 (peptide)
peptide: AVSEIQLMHNLGKHLASVERMQWLRKKLQDVHNF-NH2
notes: also called r(rat)PTH(1-34)NH2; rat-PTH(1-34)
B3: the IC50 in [4] amounted to 0.34 nM; in experiment [7], 2.3 nM. The “cAMP in ROS17/2.8 cells, EC50” value in experiment [5] amounted to 0.021 nM. Besides, the “R0:RG” value in experiment [6] was found to be 7.

B4: [His^5]rPTH(1-34)NH2 (peptide)
peptide: AVSEHQLMHNLGKHLASVERMQWLRKKLQDVHNF-NH2
Take B4: the IC50 was found to be 0.19 nM in experiment [4] and 26 nM in [7]. In addition, the “R0:RG” value in experiment [6] came to 138.

B5: [His^5,Nle^8,21,Tyr^34]rPTH(1-34)NH2 (peptide)
peptide: AVSEHQL[Nle]HNLGKHLASVER[Nle]QWLRKKLQDVHNY-NH2
modifications: N-terminus assumed
SMILES: CCCC[C@H](NC(=O)[C@H](CC(C)C)NC(=O)[C@H](CCC(N)=O)NC(=O)[C@H](Cc1c[nH]cn1)NC(=O)[C@H](CCC(=O)O)NC(=O)[C@H](CO)NC(=O)[C@@H](NC(=O)[C@H](C)N)C(C)C)C(=O)N[C@@H](Cc1c[nH]cn1)C(=O)N[C@@H](CC(N)=O)C(=O)N[C@@H](CC(C)C)C(=O)NCC(=O)N[C@@H](CCCCN)C(=O)N[C@@H](Cc1c[nH]cn1)C(=O)N[C@@H](CC(C)C)C(=O)N[C@@H](C)C(=O)N[C@@H](CO)C(=O)N[C@H](C(=O)N[C@@H](CCC(=O)O)C(=O)N[C@@H](CCCNC(=N)N)C(=O)N[C@@H](CCCC)C(=O)N[C@@H](CCC(N)=O)C(=O)N[C@@H](Cc1c[nH]c2ccccc12)C(=O)N[C@@H](CC(C)C)C(=O)N[C@@H](CCCNC(=N)N)C(=O)N[C@@H](CCCCN)C(=O)N[C@@H](CCCCN)C(=O)N[C@@H](CC(C)C)C(=O)N[C@@H](CCC(N)=O)C(=O)N[C@@H](CC(=O)O)C(=O)N[C@H](C(=O)N[C@@H](Cc1c[nH]cn1)C(=O)N[C@@H](CC(N)=O)C(=O)N[C@@H](Cc1ccc(O)cc1)C(N)=O)C(C)C)C(C)C
notes: also called His^5-PTH(1-34); H^5-PTH(1-34)
Turning to B5, the IC50 in experiment [4] worked out at 0.094 nM. In addition, the “R0:RG” value in experiment [6] was 753. In addition, the 50% inhibitory concentration (IC50) in experiment [7] turned out to be 71 nM. Moreover, in experiment [8], the “IP in COS-7/hPTHR cells, EC50” value stood at 30 nM; the “IP in COS-7/hPTHR cells, Emax” value came out at 2230 cpm/well; the “cAMP in HKRK-B64 cells, EC50” value was found to be 2.7 nM; the “cAMP in HKRK-B64 cells, Emax” value stood at 59 picomole/well.

B6: [A1,3,23,Q10,R11]-PTH(1-34)OH (peptide)
peptide: AVAEIQLMHQRGKHLNSMERVEALRKKLQDVHNF-OH
notes: also called [A^1,A^3,A^23,Q^10,R^11]-PTH(1-34)OH; [A1,3,23,Q10,R11]-hPTH(1-34)
On to B6, for which, in experiment [9], the “cAMP in HKRK-B7 cells, EC50” value is 1.76 nM and the “cAMP in HKRK-B7 cells, Max” value came to 63.8 pm/well. This molecule had an IC50 in experiment [2] of 197 nM.

B7: [Aib^1,3,Nle^8,Gln^10,homoarginine^11,Ala^12,Trp^14,Tyr^15]rPTH(1-15)NH2 (peptide)
peptide: [Aib]V[Aib]EIQL[Nle]HQ[hArg]AKWY-NH2
modifications: N-terminus assumed
SMILES: CCCC[C@H](NC(=O)[C@H](CC(C)C)NC(=O)[C@H](CCC(N)=O)NC(=O)[C@@H](NC(=O)[C@H](CCC(=O)O)NC(=O)C(C)(C)NC(=O)[C@@H](NC(=O)C(C)(C)N)C(C)C)[C@@H](C)CC)C(=O)N[C@@H](Cc1c[nH]cn1)C(=O)N[C@@H](CCC(N)=O)C(=O)N[C@@H](CCCCNC(=N)N)C(=O)N[C@@H](C)C(=O)N[C@@H](CCCCN)C(=O)N[C@@H](Cc1c[nH]c2ccccc12)C(=O)N[C@@H](Cc1ccc(O)cc1)C(N)=O
notes: also called [Aib^1,3,M]rPTH(1-15)NH2; [Aib^1,3,M]PTH(1-15)
On to B7, for which the IC50 in experiment [4] was determined as 0.74 nM; in experiment [7], 1030 nM. Also, the “R0:RG” value in experiment [6] worked out at 1400.

B8: A18,22,K26-PTHrP(1-28)NH (peptide)
peptide: AVSEHQLLHDKGKSIQDARRRAFLHKLI-NH2
As to B8, in experiment [10], the “human PIR R0 (% parent)” value was 178 % parent. Moreover, the IC50 in experiment [11] was 1820 nM; in experiment [12] it was 1820 nM; in experiment [13], 0.1 nM; in experiment [16] it was 0.1 nM. Also, the R0/RG selectivity in experiment [14] was 18100. Moreover, the “human PIR RG (% parent)” value in [15] is 193 % parent.

B9: E18,A22,K26-PTHrP(1-28)NH (peptide)
peptide: AVSEHQLLHDKGKSIQDERRRAFLHKLI-NH2
Regarding B9, in [10], the “human PIR R0 (% parent)” value turned out to be 68.8 % parent. Further, the IC50 in experiment [11] came to 9240 nM; in [12], 9240 nM; in [13], 0.24 nM; in [16], 0.24 nM. Further, in [14], the R0/RG selectivity is 38300. Further, the “human PIR RG (% parent)” value in experiment [15] came out at 145 % parent.

B10: E18,A22,L25,K26-PTHrP(1-28)NH (peptide)
peptide: AVSEHQLLHDKGKSIQDERRRAFLLKLI-NH2
notes: also called EALK-PTHrP(1-28)
On to B10, for which the IC50 in experiment [11] was found to be 1740 nM; in experiment [12], 1740 nM; in experiment [13], 0.1 nM; in experiment [16], 0.1 nM. Moreover, in [14], the R0/RG selectivity stood at 18300.
